Laboratory results published in patent publication US10596234B2, “Compositions and methods to inhibit viral replication” (priority 2016, dated 2020).
Substitutions are numbered along the chain they refer to. Numbers in names are those of the source.

Tests used:
UL37C (571-1123) = target: T1, UL37C (571-1123) (Human herpesvirus 1, UniProt P10221); assay: Cysteine labeling with electrophile and tandem mass spectrometry; assay type: biochemical, HSV-1; conditions: for C819 labeled by CNM: 45 minutes
T1 construct: bacterial purified UL37 (571-1123) was treated with N-methylacetamide; His; made in house; host or cells: E. coli BL21(DE3)
Experimental: […] Samples were then blocked with Iodoacetamide (Sigma) (50 mM) at room temperature for 1 h and subjected to Mass Spectrometry analysis (Poochon Scientific).

RIG-I [1] = assay: Two-dimensional gel electrophoresis of RIG-I deamidation in cells; assay type: cell-based, human; conditions: 293T/RIG-I cells transfected with UL37, DON 10 μM
Experimental: Cells (1×10^6) were lysed in 150 μl rehydration buffer (8 M Urea, 2% CHAPS, 0.5% IPG Buffer, 0.002% bromophenol blue) by three pulses of sonication and whole cell lysates were centrifuged at 20,000 g for 15 min. Supernatants were loaded to IEF strips for focusing with a program comprising: 20 V, 10 h (rehydration); 100 V, 1 h; 500 V, 1 h; 1000 V, 1 h; 2000 V, 1 h; 4000 V, 1 h; 8000 V, 4 h. After IEF, strips were incubated with SDS equilibration buffer (50 mM Tris-HCl [pH8.8], 6 M urea, 30% glycerol, 2% SDS, 0.001% Bromophenol Blue) containing 10 mg/ml DTT for 15 min and then SDS equilibration buffer containing 2-iodoacetamide for 15 min. Strips were washed with SDS-PAGE buffer, resolved by SDS-PAGE, and analyzed by immunoblotting.

RIG-I [2] = assay: In vitro ATPase activity assay; assay type: biochemical, human; conditions: purified RIG-I proteins; for ATPase activity kcat: at physiological ATP concentrations; for ability to hydrolyze ATP: with or without 5′ppp-RNA
Experimental: Purified RIG-I or RIG-I mutants were incubated with 5′-ppp-dsRNA (Invivogen) at 37° C. for 20 min in ATPase reaction buffer (50 mM Tris-HCl, pH 7.5, 2.5 mM MgCl2, and ATP. Released phosphates were measured using a PiColorLock™ phosphate detection reagent (Innova Biosciences). For reactions with varying concentrations of ATP, the concentrations of RIG-I proteins and RNA were 20 nM and 80 nM, respectively. For reactions with varying concentrations of the RNA, the concentrations of RIG-I proteins and ATP were 20 nM and 500 μM, respectively.
Purified RIG-I or RIG-I mutants were incubated with 5′-ppp-dsRNA (Invivogen) at 37° C. for 20 min in ATPase reaction buffer (50 mM Tris-HCl, pH 7.5, 2.5 mM MgCl2, and ATP). Released phosphates were measured using a PiColorLock™ phosphate detection reagent (Innova Biosciences). For reactions with varying concentrations of ATP, the concentrations of RIG-I proteins and RNA were 20 nM and 80 nM, respectively. For reactions with varying concentrations of the RNA, the concentrations of RIG-I proteins and ATP were 20 nM and 500 μM, respectively.

HSV-1 = HSV-1 plaque assay in HEK293 cells stably expressing RIG-I wild-type or mutants; assay type: cell-based; conditions: HEK293 stable cells, HSV-1 MOI=0.5
[3] = system: 5′-triphosphate 19mer dsRNA; assay: RNA electrophoresis mobility shift assay (EMSA); assay type: binding; conditions: 32P-labeled 5′-triphosphate 19mer dsRNA
Experimental: RNA EMSA was performed as previously described (Takahasi et al., 2008). 5′-ppp-dsRNA and control dsRNA were purchased from Invivogen and bottom strands were labeled with γ-[P^32]ATP by T4 polynucleotide kinase (NEB). Purified RIG-I and RIG-I mutants were incubated with dsRNA at room temperature for 15 min. Binding buffer contains 20 mM Tris-HCl (pH=8.0), 1.5 mM MgCl2 and 1.5 mM DTT. Unlabeled ppp-dsRNA was used as competitor at 500-fold in excess. The reaction mixtures were run on 5% native polyacrylamide gels at a constant voltage of 200 V. Gels were dried and subjected to phosphorimaging.

PRDIII promoter = assay: Dual-luciferase reporter assay (PRDIII, SeV infection); assay type: cell-based, human; conditions: 293T cells, SeV 100 HAU/ml
Experimental: HEK293T cells, seeded in 24-well plates (˜50% cell density), were transfected with IFN-β, PRDIII (ISRE) or NF-κB reporter plasmid cocktail (50 ng of luciferase reporter plasmid and 5 ng of pRL Renilla luciferase control vector) and expression plasmid (empty plasmid, one or multiple plasmids depending on the experiment) by calcium phosphate precipitation. Cells were infected with SeV (100 HA/ml), HSV-1 for 16 h, transfected with Poly [I:C] for 16 h or directly harvested 30-36 h post transfection. Whole cell lysates were used to determine the activity of firefly luciferase and renilla luciferase by a microplate reader (FLUOstar Omega).

O=C(CCl)NCO [CNM, 2-Chloro-N-(hydroxymethyl) acetamide]
C819 labeled by CNM (UL37C (571-1123); CNM 1 μM): 38.3%
C819 labeled by CNM (UL37C (571-1123); CNM 10 μM): 42.5%
C850 labeled by CNM (UL37C (571-1123); CNM 1 and 10 μM): < 10%

[N-]=[N+]=CC(=O)CC[C@H](N)C(=O)O [DON, 6-diazo-5-oxo-L-norleucine, reference compound]
UL37-induced RIG-I deamidation in cells (RIG-I [1]): inhibited RIG-I deamidation

B1: RIG-I-WT: wild-type RIG-I polypeptide, SEQ ID NO. 3 (protein, listed as Homo sapiens)
chain: MTTEQRRSLQAFQDYIRKTLDPTYILSYMAPWFREEEVQYIQAEKNNKGPMEAATLFLKFLLELQEEGWFRGFLDALDHAGYSGLYEAIESWDFKKIEKLEEYRLLLKRLQPEFKTRIIPTDIISDLSECLINQECEEILQICSTKGMMAGAEKLVECLLRSDKENWPKTLKLALEKERNKFSELWIVEKGIKDVETEDLEDKMETSDIQIFYQEDPECQNLSENSCPPSEVSDTNLYSPFKPRNYQLELALPAMKGKNTIICAPTGCGKTFVSLLICEHHLKKFPQGQKGKVVFFANQIPVYEQQKSVFSKYFERHGYRVTGISGATAENVPVEQIVENNDIIILTPQILVNNLKKGTIPSLSIFTLMIFDECHNTSKQHPYNMIMFNYLDQKLGGSSGPLPQVIGLTASVGVGDAKNTDEALDYICKLCASLDASVIATVKHNLEELEQVVYKPQKFFRKVESRISDKFKYIIAQLMRDTESLAKRICKDLENLSQIQNREFGTQKYEQWIVTVQKACMVFQMPDKDEESRICKALFLYTSHLRKYNDALIISEHARMKDALDYLKDFFSNVRAAGFEEIEQDLTQRFEEKLQELESVSRDPSNENPKLEDLCFILQEEYHLNPETITILFVKTRALVDALKNWIEGNPKLSFLKPGILTGRGKTNQNTGMTLPAQKCILDAFKASGDHNILIATSVADEGIDIAQCNLVILYEYVGNVIKMIQTRGRGRARGSKCFLLTSNAGVIEKEQINMYKEKMMNDSILRLQTWDEAVFREKILHIQTHEKFIRDSQEKPKPVPDKENKKLLCRKCKALACYTADVRVIEECHYTVLGDAFKECFVSRPHPKPKQFSSFEKRAKIFCARQNCSHDWGIHVKYKTFEIPVIKIESFVVEDIATGVQTLYSKWKDFHFEKIPFDPAEMSK
ATPase activity kcat (RIG-I [2]): 944 s⁻¹
reduction of HSV-1 replication / titer (HSV-1): ~50%

B2: RIG-I-N549D (protein, UniProt O95786 1-925, looked up, variant N549D)
Antiviral innate immune …: B1 chain with N549D, E580D
ability to hydrolyze ATP (RIG-I [2]): basal or no ATPase activity

B3: RIG-I-DD (protein)
chain: B1 chain with N495D, N549D
modifications: left off: small tags and cut ends
ATPase activity kcat (RIG-I [2]): 32.6 s⁻¹
ability to hydrolyze ATP (RIG-I [2]): completely lost its ability to hydrolyze ATP
reduction of HSV-1 replication / titer (HSV-1): marginal effect
RNA-binding (RIG-I:RNA complex formation) [3]: significantly impaired in forming the fast migrating RIG-I:RNA complex

B4: RIG-I-N495D (protein, UniProt O95786 1-925, looked up, variant N495D)
Antiviral innate immune …: B1 chain with N495D, E580D
ability to hydrolyze ATP (RIG-I [2]): basal or no ATPase activity
RNA-binding (RIG-I:RNA complex formation) [3]: comparable RNA-binding affinity to RIG-I-WT

B5: C850S (protein)
chain: MADRGLPSEAPVVTTSPAGPPSDGPMQRLLASLAGLRQPPTPTAETANGADDPAFLATAKLRAAMAAFLLSGTAIAPADARDCWRPLLEHLCALHRAHGLPETALLAENLPGLLVHRLVVALPEAPDQAFREMEVIKDTILAVTGSDTSHALDSAGLRTAAALGPVRVRQCAVEWIDRWQTVTKSCLAMSPRTSIEALGETSLKMAPVPLGQPSANLTTPAYSLLFPAPFVQEGLRFLALVSNRVTLFSAHLQRIDDATLTPLTRALFTLALVDEYLTTPERGAVVPPPLLAQFQHTVREIDPAIMIPPLEANKMVRSREEVRVSTALSRVSPRSACAPPGTLMARVRTDVAVFDPDVPFLSSSALAVFQPAVSSLLQLGEQPSAGAQQRLLALLQQTWTLIQNTNSPSVVINTLIDAGFTPSHCTHYLSALEGFLAAGVPARTPTGHGLGEVQQLFGCIALAGSNVFGLAREYGYYANYVKTFRRVQGASEHTHGRLCEAVGLSGGVLSQTLARIMGPAVPTEHLASLRRALVGEFETAERRFSSGQPSLLRETALIWIDVYGQTHWDITPTTPATPLSALLPVGQPSHAPSVHLAAATQIRFPALEGIHPNVLADPGFVPYVLALVVGDALRATCSAAYLPRPVEFALRVLAWARDFGLGYLPTVEGHRTKLGALITLLEPAARGGLGPTMQMADNIEQLLRELYVISRGAVEQLRPLVQLQPPPPPEVGTSLLLISMYALAARGVLQDLAERADPLIRQLEDAIVLLRLHMRTLSAFFECRFESDGRRLYAVVGDTPDRLGPWPPEAMGDAVSQYCSMYHDAKRALVASLASLRSVITETTAHLGVSDELAAQVSHEDNVLAVVRREIHGFLSVVSGIHARASKLLSGDQVPGFCFMGQFLARWRRLSACYQAARAAAGPEPVAEFVQELHDTWKGLQTERAVVVAPLVSSADQRAAAIREVMAHAPEDAPPQSPAADRVVLTSRRDLGAWGDYSLGPLGQTTAVPDSVDLSRQGLAVTLSMDWLLMNELLRVTDGVFRASAFRPLAGPESPRDLEVRDAGNSLPAPMPMDAQKPEAYGHGPRQADREGAPHSNTPVEDDEMIPEDTVAPPTDLPLTSYQ
blockade of SeV-induced PRDIII promoter activation (PRDIII promoter): greatly impaired blockade of PRDIII induction by SeV
